The values that follow are results of earlier work, collected in publication PMC8625919.

Values joined by “and” are separate entries in the source; they are usually repeats but may differ in a detail not shown here. Equal values may be shown once.

The target of data set [1] is VEGFR-1D1-7 D1-7 (Homo sapiens) (UniProt P17948). The experiment in a line: ITC.
The target in data set [2] is VEGFR-1D1-3 D1-3 (Homo sapiens) (UniProt P17948). The data set can be described thus: ITC. Background: Isothermal titration calorimetry measures the heat released or taken up as one component is titrated into another.
Another data set deals with VEGFR-2 (Homo sapiens) (UniProt P35968).
For data set [3], the target named is Neuropilin-1 (Homo sapiens) (UniProt O14786). The experiment in a line: ELISA type assay with AP-VEGF164. (In general: In an ELISA, binding on a coated surface is turned into a signal by an enzyme label.)
In data set [4] the target is VEGFR-2D2-3 D2-3 (Homo sapiens) (UniProt P35968). The data set can be described thus: ITC.
Data set [5] shares this target. The experiment in a line: SPR.
For data set [6], the target named is VEGFR-3 D1-5 (Homo sapiens) (UniProt P35916).
The target in data set [7] is VEGFR-3D1-5 D1-5 (Homo sapiens) (UniProt P35916). The experiment in a line: ITC.
Data set [8] has as its target VEGFR-3D1-2 D1-2 (Homo sapiens) (UniProt P35916). The experiment in a line: ITC.
The target in data set [9] is VEGFR-3D1-3 D1-3 (Homo sapiens) (UniProt P35916). The experiment in a line: ITC.
Data set [10] has as its target VEGFR-3 D1-3 (Homo sapiens) (UniProt P35916).
Data set [11] has as its target VEGFR-3 D1-2 (Homo sapiens) (UniProt P35916).

UniProt O14786, sequence (O14786 22-923): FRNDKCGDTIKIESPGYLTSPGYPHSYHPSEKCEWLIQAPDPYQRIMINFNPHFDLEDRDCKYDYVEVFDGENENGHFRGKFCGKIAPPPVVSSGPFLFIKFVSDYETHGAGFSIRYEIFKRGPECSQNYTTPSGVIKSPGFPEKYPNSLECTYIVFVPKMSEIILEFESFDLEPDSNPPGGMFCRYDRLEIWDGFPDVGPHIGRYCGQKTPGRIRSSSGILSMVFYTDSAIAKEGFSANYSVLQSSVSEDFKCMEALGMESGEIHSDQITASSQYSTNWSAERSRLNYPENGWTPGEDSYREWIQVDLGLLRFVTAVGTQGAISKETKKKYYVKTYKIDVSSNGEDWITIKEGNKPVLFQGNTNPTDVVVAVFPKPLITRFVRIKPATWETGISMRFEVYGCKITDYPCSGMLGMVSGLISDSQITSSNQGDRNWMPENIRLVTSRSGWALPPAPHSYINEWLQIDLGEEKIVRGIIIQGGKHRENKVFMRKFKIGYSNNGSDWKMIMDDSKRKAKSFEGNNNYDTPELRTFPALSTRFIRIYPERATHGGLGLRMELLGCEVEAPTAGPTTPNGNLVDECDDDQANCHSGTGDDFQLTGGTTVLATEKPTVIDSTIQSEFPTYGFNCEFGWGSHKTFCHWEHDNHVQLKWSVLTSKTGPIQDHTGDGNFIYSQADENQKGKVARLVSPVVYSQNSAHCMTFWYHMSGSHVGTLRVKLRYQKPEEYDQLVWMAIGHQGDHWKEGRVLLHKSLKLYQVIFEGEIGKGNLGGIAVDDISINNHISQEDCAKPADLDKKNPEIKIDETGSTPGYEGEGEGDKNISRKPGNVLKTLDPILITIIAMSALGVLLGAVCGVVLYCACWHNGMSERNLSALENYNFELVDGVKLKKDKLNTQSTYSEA

On to VEGF-A (from UniProt P15692), for which the Kd was 1.7 nM in data set [1], 47 nM in data set [2] and 0.113 nM with VEGFR-2 (Homo sapiens).

For the substance VEGF164 (from UniProt Q00731), in [3], the Kd is 3 nM.

As for VEGF165 (from UniProt P15692), the Kd in data set [4] is 170 nM and 18 nM; in data set [5], 36.7 nM.

With VEGF-C (from UniProt P49767), the equilibrium dissociation constant (Kd) in [6] is 3.7 nM; in data set [7], 3.7 nM; in data set [4], 16 nM; in data set [8], 250 nM; in data set [9], 140 nM; in data set [10] it was 140 nM. Further, the results for the Kd in data set [5] and in [11] were 18.2 nM and 250 nM, respectively.

By Kd is commonly meant a measure of binding affinity in units of concentration.
